Experimental data: article PMC2748841 (Nature, 2009)

B1: cellular Prion Protein (PrP^C), full-length mouse PrP expressed on COS-7 cells (receptor)
chain: not shown
B2: Transmembrane protein 30B (TMEM30B) (natural protein)
chain: MTWSATARGAHQPDNTAFTQQRLPAWQPLLSASIALPLFFCAGLAFIGLGLGLYYSSNGIKELEYDYTGDPGTGNCSVCAAAGQGRALPPPCSCAWYFSLPELFQGPVYLYYELTNFYQNNRRYGVSRDDAQLSGLPSALRHPVNECAPYQRSAAGLPIAPCGAIANSLFNDSFSLWHQRQPGGPYVEVPLDRSGIAWWTDYHVKFRNPPLVNGSLALAFQGTAPPPNWRRPVYELSPDPNNTGFINQDFVVWMRTAALPTFRKLYARIRQGNYSAGLPRGAYRVNITYNYPVRAFGGHKLLIFSSISWMGGKNPFLGIAYLVVGSLCILTGFVMLVVYIRYQDQDDDDEE
B3: Amyloid precursor-like protein 1 (APLP1) (natural protein)
chain: SLAGGSPGAAEAPGSAQVAGLCGRLTLHRDLRTGRWEPDPQRSRRCLRDPQRVLEYCRQMYPELQIARVEQATQAIPMERWCGGSRSGSCAHPHHQVVPFRCLPGEFVSEALLVPEGCRFLHQERMDQCESSTRRHQEAQEACSSQGLILHGSGMLLPCGSDRFRGVEYVCCPPPGTPDPSGTAVGDPSTRSWPPGSRVEGAEDEEEEESFPQPVDDYFVEPPQAEEEEETVPPPSSHTLAVVGKVTPTPRPTDGVDIYFGMPGEISEHEGFLRAKMDLEERRMRQINEVMREWAMADNQSKNLPKADRQALNEHFQSILQTLEEQVSGERQRLVETHATRVIALINDQRRAALEGFLAALQADPPQAERVLLALRRYLRAEQKEQRHTLRHYQHVAAVDPEKAQQMRFQVHTHLQVIEERVNQSLGLLDQNPHLAQELRPQIQELLHSEHLGPSELEAPAPGGSSEDKGGLQPPDSKDDTPMTLPKGSTEQDAASPEKEKMNPLEQYERKVNASVPRGFPFHSSEIQRDELAPAGTGVSREAVSGLLIMGAGGGSLIVLSMLLLRRKKPYGAISHGVVEVDPMLTLEEQQLRELQRHGYENPTYRFLEERP

Target: biotin-Aβ42-oligomer (UniProt P05067)
Assay: binding of biotinylated ligand to transfected cells

Row | Binder | Kd
1 | B1 | 92 nM
2 | B2 | 720 nM
3 | B3 | 660 nM
